These results are taken from paper PMC8914840.

This series addresses human alpha thrombin (human, UniProt P00734;P00734 328-363;364-622). Put plainly: electrochemical aptamer sensor (square-wave voltammetry); 1-500 nM thrombin; 100 Hz optimal; concentration-dependent peak current decrease; LOD 14.7 nM (not a Kd); Electrodes soaked in PBS before measurement (137 mM NaCl, 2.7 mM KCl, 10 mM Na2HPO4, 1.8 mM KH2PO4, pH 7.4); thrombin assay buffer and temperature not given in.

Turning to TAAGTTCATCTCCCCGGTTGGTGTGGTTGGT (structured_DNA, 5' SH-(CH2)6; 3' amine conjugated to arPES) [PES-modified TBA (arPES-TBA)], the binding result is listed as “binds”.
